Assay results taken from patent publication US12612465B2, “Formulations comprising PCSK9 specific monoclonal antibodies” (Amgen Inc., priority 2012, dated 2026).
Marks after values point to notes of the source that are not given here.

Key:
Type in all cases: in vivo
PCSK9 [1] = molecular target: T1, PCSK9 (Homo sapiens, UniProt Q8NBP7); test: 12 week study in hypercholesterolemic patients unable to tolerate a statin (Example 23); details: statin-intolerant, preliminary
T1 construct: endogenous in cells; host or cells: human subjects, in vivo
T1 sequence (Q8NBP7 153-692): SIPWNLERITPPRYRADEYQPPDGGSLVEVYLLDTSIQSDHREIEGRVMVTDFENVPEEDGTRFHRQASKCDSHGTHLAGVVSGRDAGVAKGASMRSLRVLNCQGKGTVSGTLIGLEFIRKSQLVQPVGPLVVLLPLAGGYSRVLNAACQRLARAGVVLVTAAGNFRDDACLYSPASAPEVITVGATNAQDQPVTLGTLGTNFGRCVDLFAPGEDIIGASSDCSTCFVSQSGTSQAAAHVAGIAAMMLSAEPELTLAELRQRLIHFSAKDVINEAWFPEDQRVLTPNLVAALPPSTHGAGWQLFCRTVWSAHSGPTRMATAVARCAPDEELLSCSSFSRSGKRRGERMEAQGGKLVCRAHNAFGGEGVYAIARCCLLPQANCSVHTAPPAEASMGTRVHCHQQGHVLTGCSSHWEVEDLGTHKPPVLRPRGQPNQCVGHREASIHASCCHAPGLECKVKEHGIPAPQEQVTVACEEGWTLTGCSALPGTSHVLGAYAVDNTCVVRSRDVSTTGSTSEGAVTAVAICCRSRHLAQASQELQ
Experimental: It is planned to enroll 150 subjects. […] Randomization will be stratified by screening LDL-C level (<130 mg/dL [3.4 mmol/L] vs ≥130 mg/dL) and statin use at baseline (yes vs no). Randomization should occur within 5-10 days of the screening LDL-C evaluation used to determine eligibility. Monoclonal antibody, 21B12, and placebo will be blinded. Ezetimibe is not blinded. Study visits are at weeks 2, 4, 8, and 12. […] The end-of-study visit and the last evaluation of lipids is at week 12.
Males and females, ≥18 to ≤75 years of age, are eligible for this study. Subject must have tried at least 1 statin and have been unable to tolerate any dose or an increase in statin dose above the following total weekly maximum doses due to myalgia or myopathy: atorvastatin ≤70 mg, simvastatin ≤140 mg, pravastatin ≤140 mg, rosuvastatin ≤35 mg, lovastatin ≤140 mg, fluvastatin ≤280 mg. For unlisted statins, the maximal total weekly dose should not exceed 7 times the smallest available tablet size. Symptoms must have resolved when statin was discontinued or the dose reduced. If receiving statin (not exceeding the maximal dose defined above), bile-acid sequestering resin, and/or stanol therapy, the dose(s) must be stable for at least 4 weeks prior to LDL-C screening. If the subject is on ezetimibe at start of screening, ezetimibe must be discontinued for ≥4 weeks before LDL-C screening. Depending on their risk category (based on NCEP ATP III treatment goals) subjects must meet the following fasting LDL-C (by central laboratory) criteria at screening: ≥100 mg/dL (2.6 mmol/L) for subjects with diagnosed coronary heart disease (CHD) or CHD risk equivalent; ≥130 mg/dL (3.4 mmol/L) for subjects without diagnosed CHD or risk equivalent and 2 or more risk factors; ≥160 mg/dL (4.1 mmol/L) for subjects without diagnosed CHD or risk equivalent and with 1 or no risk factors. Fasting triglycerides must be ≤400 mg/dL (4.5 mmol/L) as determined by the central laboratory analysis at screening.

PCSK9 [2] = molecular target: T1, PCSK9; test: 12 week study in heterozygous familial hypercholesterolemia (Example 22); details: HeFH, preliminary
Experimental: This study is a double-blind, randomized, stratified, placebo-controlled clinical trial evaluating the safety, tolerability, and efficacy of monocloncal antibody 21B12 in subjects having a diagnosis of HeFH. A total enrollment of 150 subjects is planned. […] Randomization will be stratified by screening LDL-C level (<130 mg/dL [3.4 mmol/L] vs ≥130 mg/dL) and ezetimibe use at baseline (yes vs no). Randomization should occur within 5-10 days of the screening LDL-C evaluation used to determine eligibility. Monoclonal antibody, 21B12, and placebo will be blinded. Study visits are at weeks 2, 4, 8, and 12. […] The end-of-study (EOS) visit and the last evaluation of lipids is at week 12.
Males and females, ≥18 to ≤75 years of age, and with a diagnosis of heterozygous familial hypercholesterolemia by the diagnostic criteria of the Simon Broome Register Group (SBRG), are eligible for this study. For enrollment, subjects must be on an approved statin, with stable dose(s) for all allowed (eg, ezetimibe, bile-acid sequestering resin, stanols, or regulatory-approved and marketed niacin (eg, Niaspan or Niacor)) lipid-regulating drugs for at least
4 weeks before LDL-C screening and, in the opinion of the investigator, not requiring uptitration. Fasting LDL-C must be ≥100 mg/dL (2.6 mmol/L) and fasting triglycerides ≤400 mg/dL (4.5 mmol/L) by central laboratory at screening.

PCSK9 [3] = molecular target: T1, PCSK9; test: 12 week monotherapy dose-ranging study, Framingham risk 10% or less (Example 24); details: for Treatment difference vs ezetimibe in LDL-C percent change, week 12 / Treatment difference vs placebo in LDL-C percent change, week 12: P < 0.001; for mean percent reduction from baseline in LDL-C: monotherapy, preliminary
Experimental: Ezetimibe was not blinded. The end-of-study visit and the last estimation of lipids was at week 12 for subjects on Q4W IP schedule or on ezetimibe and week 14 for subjects on Q2W IP schedule.
Males and females, ≥18 to ≤75 years of age, were eligible for this study. Fasting LDL-C was ≥100 mg/dL (2.6 mmol/L) and ≤190 mg/dL (4.9 mmol/L) and fasting triglycerides ≤400 mg/dL (4.5 mmol/L) by central laboratory at screening.
The primary endpoint was the percent change from baseline in LDL-C at week 12. Secondary endpoints included percent changes in apolipoprotein B (ApoB), lipoprotein (a) (Lp(a)), and in the ratio of total cholesterol to high-density lipoprotein (HDL)-C. Tolerability and safety were also evaluated.

[4] = 280 mg Q4W SC, end of dosing interval
[5] = 350 mg Q4W SC, end of dosing interval

B1: 21B12: human anti-PCSK9 monoclonal antibody, light/heavy variable region SEQ ID NO 23/49 (antibody, listed as Homo sapiens, V domains shown)
VH: QVQLVQSGAEVKKPGASVKVSCKASGYTLTSYGISWVRQAPGQGLEWMGWVSFYNGNTNYAQKLQGRGTMTTDPSTSTAYMELRSLRSDDTAVYYCARGYGMDVWGQGTTVTVSS
VL: QSALTQPASVSGSPGQSITISCTGTSSDVGGYNSVSWYQQHPGKAPKLMIYEVSNRPSGVSNRFSGSKSGNTASLTISGLQAEDEADYYCNSYTSTSMVFGGGTKLTVL
PCSK9 [1]; [4]
  LS mean percent increase from baseline in HDL-C: 8.62%
  LS mean percent reduction from baseline in LDL-C: 38.79%
  LS mean percent reduction from baseline in Lp(a): 27.38%
  LS mean percent reduction from baseline in VLDL-C: 31.02%
  LS mean percent reduction from baseline in non-HDL-C: 39.92%
  LS mean percent reduction from baseline in total cholesterol: 31.03%
  LS mean percent reduction from baseline in triglycerides: 15.35%
PCSK9 [1]; [5]
  LS mean percent increase from baseline in HDL-C: 4.62%
  LS mean percent reduction from baseline in LDL-C: 40.01%
  LS mean percent reduction from baseline in Lp(a): 16.04%
  LS mean percent reduction from baseline in VLDL-C: 38.14%
  LS mean percent reduction from baseline in non-HDL-C: 42.86%
  LS mean percent reduction from baseline in total cholesterol: 34.46%
  LS mean percent reduction from baseline in triglycerides: 19.22%
PCSK9 [1]; 420 mg Q4W SC
  LS mean percent increase from baseline in HDL-C: 7.55%
  LS mean percent reduction from baseline in LDL-C: 50.63%
  LS mean percent reduction from baseline in Lp(a): 23.84%
  LS mean percent reduction from baseline in VLDL-C: 37.27%
  LS mean percent reduction from baseline in non-HDL-C: 53.49%
  LS mean percent reduction from baseline in total cholesterol: 42.23%
  LS mean percent reduction from baseline in triglycerides: 19.55%
PCSK9 [2]; [5]
  LS mean percent increase from baseline in HDL-C: 15.39%
  LS mean percent reduction from baseline in LDL-C: 38.46%
  LS mean percent reduction from baseline in Lp(a): 21.69%
  LS mean percent reduction from baseline in VLDL-C: 17.16%
  LS mean percent reduction from baseline in non-HDL cholesterol: 36.16%
  LS mean percent reduction from baseline in total cholesterol: 24.82%
  LS mean percent reduction from baseline in triglycerides: 17.24%
PCSK9 [2]; 420 mg Q4W SC
  LS mean percent increase from baseline in HDL-C: 6.77%
  LS mean percent reduction from baseline in LDL-C: 45.68%
  LS mean percent reduction from baseline in Lp(a): 28.23%
  LS mean percent reduction from baseline in VLDL-C: 18.49%
  LS mean percent reduction from baseline in non-HDL cholesterol: 41.81%
  LS mean percent reduction from baseline in total cholesterol: 29.45%
  LS mean percent reduction from baseline in triglycerides: 4.56%
PCSK9 [3]; 70 mg Q2W SC (N = 45)
  Least squares mean percent change from baseline in LDL-C, week 12: −40.98%
PCSK9 [3]; 70 mg Q2W SC
  Treatment difference vs ezetimibe in LDL-C percent change, week 12: −26.73* %
  Treatment difference vs placebo in LDL-C percent change, week 12: −37.27* %
PCSK9 [3]; 70 mg Q2W SC, end of dosing interval
  mean percent reduction from baseline in LDL-C: 41.21%
PCSK9 [3]; 105 mg Q2W SC (N = 46)
  Least squares mean percent change from baseline in LDL-C, week 12: −43.87%
PCSK9 [3]; 105 mg Q2W SC
  Treatment difference vs ezetimibe in LDL-C percent change, week 12: −29.62* %
  Treatment difference vs placebo in LDL-C percent change, week 12: −40.17* %
PCSK9 [3]; 105 mg Q2W SC, end of dosing interval
  mean percent reduction from baseline in LDL-C: 45.44%
PCSK9 [3]; 140 mg Q2W SC (N = 45)
  Least squares mean percent change from baseline in LDL-C, week 12: −50.93%
PCSK9 [3]; 140 mg Q2W SC
  Treatment difference vs ezetimibe in LDL-C percent change, week 12: −36.68* %
  Treatment difference vs placebo in LDL-C percent change, week 12: −47.23* %
  mean percent reduction from baseline in LDL-C: 51.56%
PCSK9 [3]; 280 mg Q4W SC (N = 45)
  Least squares mean percent change from baseline in LDL-C, week 12: −39.02%
PCSK9 [3]; 280 mg Q4W SC
  Treatment difference vs ezetimibe in LDL-C percent change, week 12: −25.17* %
  Treatment difference vs placebo in LDL-C percent change, week 12: −43.57* %
PCSK9 [3]; [4]
  mean percent reduction from baseline in LDL-C: 37.53%
PCSK9 [3]; 350 mg Q4W SC (N = 45)
  Least squares mean percent change from baseline in LDL-C, week 12: −43.20%
PCSK9 [3]; 350 mg Q4W SC
  Treatment difference vs ezetimibe in LDL-C percent change, week 12: −29.34* %
  Treatment difference vs placebo in LDL-C percent change, week 12: −47.74* %
PCSK9 [3]; [5]
  mean percent reduction from baseline in LDL-C: 42.16%
PCSK9 [3]; 420 mg Q4W SC (N = 45)
  Least squares mean percent change from baseline in LDL-C, week 12: −47.98%
PCSK9 [3]; 420 mg Q4W SC
  Treatment difference vs ezetimibe in LDL-C percent change, week 12: −34.14* %
  Treatment difference vs placebo in LDL-C percent change, week 12: −52.53* %
  mean percent reduction from baseline in LDL-C: 47.52%
PCSK9 [3]; final data
  change in LDL-C from baseline to week 12 greater than with placebo: up to 72 mg/dL
  mean reduction from baseline for ApoB: up to 44%
  mean reduction from baseline for Lp(a): up to 29%
PCSK9 [3]; week 12, final data
  LDL-C reductions from baseline greater than ezetimibe: 37%
PCSK9 [3]; week 12, final data, across dose regimens
  least-squares (LS) mean percent reduction from baseline in LDL-C: up to 51%
